Experimental data reported in patent US20060229240A1 (GARDELL ET AL, published 2006).
Where two headings read alike, the source gives them in different places. Positions of bridges follow the written chain, without caps; N, C: chain ends. Non-standard residues stand in square brackets, D forms with d. No end group written: not given here. hArg = N=C(N)NCCCC[C@H](N)C(=O)O; Aib = CC(C)(N)C(=O)O

Assays:
[1] = target: T1, P1R-DelNt (truncated human P1R deleted for residues 24-181) (human, UniProt Q03431 182-593); assay: cell-based or functional assay
T1 sequence (looked up): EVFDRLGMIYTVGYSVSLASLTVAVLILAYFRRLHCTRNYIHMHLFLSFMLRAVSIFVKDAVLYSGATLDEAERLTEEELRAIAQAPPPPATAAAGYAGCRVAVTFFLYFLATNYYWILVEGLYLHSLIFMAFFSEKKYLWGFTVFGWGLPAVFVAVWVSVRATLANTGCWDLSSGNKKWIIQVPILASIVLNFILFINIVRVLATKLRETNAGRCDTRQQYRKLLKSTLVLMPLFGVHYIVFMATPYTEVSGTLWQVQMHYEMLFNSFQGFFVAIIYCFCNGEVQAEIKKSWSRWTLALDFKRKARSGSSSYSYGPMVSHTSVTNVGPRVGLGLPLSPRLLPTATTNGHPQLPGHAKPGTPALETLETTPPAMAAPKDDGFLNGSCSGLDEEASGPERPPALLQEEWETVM

[2] = target: T1, P1R-DelNt (truncated human P1R deleted …); assay: cell-based or functional assay; remark: listed apart in the source
[3] = target: T2, PTH/PTHrP receptor (P1R), wild-type, full-length (human, UniProt Q03431 27-593); assay: cell-based or functional assay
T2 sequence (looked up): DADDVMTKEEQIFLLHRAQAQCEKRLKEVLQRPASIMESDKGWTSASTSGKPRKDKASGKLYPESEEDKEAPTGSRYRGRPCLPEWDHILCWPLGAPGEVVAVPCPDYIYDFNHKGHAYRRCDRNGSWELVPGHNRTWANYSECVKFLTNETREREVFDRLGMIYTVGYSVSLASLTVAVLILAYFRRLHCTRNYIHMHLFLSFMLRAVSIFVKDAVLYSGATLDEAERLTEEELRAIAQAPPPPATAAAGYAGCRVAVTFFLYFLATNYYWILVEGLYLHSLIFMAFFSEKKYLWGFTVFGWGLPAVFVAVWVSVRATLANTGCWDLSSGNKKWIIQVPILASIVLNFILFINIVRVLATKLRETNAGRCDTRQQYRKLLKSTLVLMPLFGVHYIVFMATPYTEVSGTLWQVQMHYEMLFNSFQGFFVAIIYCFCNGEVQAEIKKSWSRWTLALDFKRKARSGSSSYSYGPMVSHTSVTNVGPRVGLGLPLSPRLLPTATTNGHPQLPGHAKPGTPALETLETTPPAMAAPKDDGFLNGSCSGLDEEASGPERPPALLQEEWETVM

[4] = target: T2, PTH/PTHrP receptor (P1R), wild-type, …; assay: cell-based or functional assay; remark: listed apart in the source
[5] = target: T2, PTH/PTHrP receptor (P1R), wild-type, …; assay: competition with 125I-[Ala3,12,Gln10,Har11,Trp14,Arg19,Tyr21]PTH(1-21)-amide tracer on HKRK-B28 cells expressing P1R
Method: Competition Binding. Binding reactions were performed with […] cells or in COS-7 cells in 24-well plates. The cells were rinsed with 0.5 mL of binding buffer, and then treated successively with 100 μL binding buffer, 100 μL of binding buffer containing various amounts of unlabeled competitor ligand, and 100 μL of binding buffer containing ca. 100,000 cpm of ¹²⁵I-[M]PTH(1-21)(SEQ. ID. NO. 16) or ¹²⁵I-[Aib^{1,3},M]PTH(1-21)(SEQ. ID. NO. 17) (ca. 26 fmol; final volume=300 μL). Incubations were 4 to 6 h at 4° C., at which time near equilibrium conditions were attained. Cells were then placed on ice, the binding medium was removed, and the monolayer was rinsed three times with 0.5 mL of cold binding buffer. The cells were subsequently lysed with 0.5 mL 5N NaOH and counted for radioactivity. For each tracer and in each experiment, the non-specific binding was determined as the radioactivity that bound in the presence of the same unlabeled peptide at a concentration of 1 μM, and was ˜1% of total radioactivity added for each tracer. The maximum specific binding (B₀) was the total radioactivity bound in the absence of competing ligand, corrected for nonspecific binding, and for each tracer, ranged from 8% to 20% of the total radioactivity added. Nonlinear regression was used to calculate binding IC₅₀ values (see below). Scatchard transformations of homologous competition binding data derived from studies with 26 fmol of ¹²⁵I-[Aib^{1,3},M]PTH(1-21) (SEQ. ID. NO. 17) were employed for estimations of apparent equilibrium dissociation constant (kDapps) and total number of ligand binding sites (Bₘₐₓ), assuming a single class of binding sites and equal affinities of the iodinated and non iodinated ligand.
The peptide PTH(1-34) ([Tyr³⁴]bPTH(1-34)NH₂) (SEQ. ID. NO. 10) and analogs containing substitutions at positions 6 and/or 10 in place of Gln and Asn, respectively, were evaluated in HKRK-B28 cells for the capacity to stimulate cAMP accumulation, and to inhibit the binding of ¹²⁵I-[Ala^{3,12}, Gln¹⁰, Har¹¹, Trp¹⁴,Arg¹⁹, Tyr²¹]PTH(1-21)-amide (SEQ. ID. NO. 30) tracer radioligand.

[6] = target: T1, P1R-DelNt (truncated human P1R deleted …); assay: cell-based or functional assay; remark: listed apart in the source
[7] = target: T2, PTH/PTHrP receptor (P1R), wild-type, …; assay: cell-based or functional assay; remark: listed apart in the source
[8] = target: T2, PTH/PTHrP receptor (P1R), wild-type, …; assay: cell-based or functional assay; remark: listed apart in the source
[9] = target: T2, PTH/PTHrP receptor (P1R), wild-type, …; assay: cell-based or functional assay; remark: listed apart in the source

AVAEIQLMHQR-NH2 [PTH(1-11) (AlaValAlaGluIleGlnLeuMetHisGlnArg-amide)]
cAMP EC50 [1]: 14 µM
cAMP Emax (%) [1]: 100%
fold increase in cAMP formation [2]: 55 fold
fold increase in cAMP formation [3]: 75 fold
cAMP EC50 [4]: 5 µM
cAMP Emax (%) [4]: 100%

SVSEIQLMHALGKHLNSMERVEWLRKKLQDVHNY-NH2 [[Ala^10]PTH(1-34)]
IC50 [5]: 6.4 µM
cAMP EC50 [6]: 14 µM
cAMP Emax (%) [6]: 46%
cAMP EC50 [7]: 0.27 µM
cAMP Emax (%) [7]: 96%
cAMP EC50 [8]: 3 µM
cAMP Emax (%) [8]: 106%

B1: [(Lys^6, Glu^10)lac.]PTH(1-14) (peptide)
peptide: AVAEIKLMHE[hArg]AKW-NH2
modifications: lactam 6-10; N-terminus assumed
SMILES: CC[C@H](C)[C@H](NC(=O)[C@H](CCC(=O)O)NC(=O)[C@H](C)NC(=O)[C@@H](NC(=O)[C@H](C)N)C(C)C)C(=O)N[C@H]1CCCCNC(=O)CC[C@@H](C(=O)N[C@@H](CCCCNC(=N)N)C(=O)N[C@@H](C)C(=O)N[C@@H](CCCCN)C(=O)N[C@@H](Cc2c[nH]c3ccccc23)C(N)=O)NC(=O)[C@H](Cc2c[nH]cn2)NC(=O)[C@H](CCSC)NC(=O)[C@H](CC(C)C)NC1=O
cAMP EC50 [9]: 21 µM
cAMP Emax (%) [9]: 59%
cAMP potency relative to linear [Lys^6, Glu^10]PTH(1-14) [3]: 6 fold

B2: [Aib^1,3]PTH(1-14) (AibValAibGluIleGlnLeuMetHisGlnHarAlaLysTrp-amide) (peptide)
peptide: [Aib]V[Aib]EIQLMHQ[hArg]AKW-NH2
modifications: N-terminus assumed
SMILES: CC[C@H](C)[C@H](NC(=O)[C@H](CCC(=O)O)NC(=O)C(C)(C)NC(=O)[C@@H](NC(=O)C(C)(C)N)C(C)C)C(=O)N[C@@H](CCC(N)=O)C(=O)N[C@@H](CC(C)C)C(=O)N[C@@H](CCSC)C(=O)N[C@@H](Cc1c[nH]cn1)C(=O)N[C@@H](CCC(N)=O)C(=O)N[C@@H](CCCCNC(=N)N)C(=O)N[C@@H](C)C(=O)N[C@@H](CCCCN)C(=O)N[C@@H](Cc1c[nH]c2ccccc12)C(N)=O
cAMP EC50 [1]: 0.0066 µM
cAMP Emax (%) [1]: 100%
fold increase in cAMP accumulation [2]: 50 fold
